# Molecular target: Oct1 DNA binding domain (Oct1-DBD);OCA-B (human (from pBabe-hOct1);, UniProt P14859;Q16633 280-438;1-256, |)
# Test: EMSA; OCA-B supershifts Oct1-DBD; EMSA: 0.6X buffer D (1X: 20 mM HEPES, 100 mM KCl, 1 mM DTT), 50 ng/ul poly-dI/dC, 1 ug/ul BSA, on ice 15 min, 6% native PAGE in 0.5X TBE; probe 50 nM (1 nM for)
# Settings: protein: recombinant;recombinant; tags: His (pET28a);C-terminal twinstrep and FLAG; copies: 1;1; blunt
# Chain of Oct1 DNA binding domain (Oct1-DBD);OCA-B (P14859 280-438, chain 1 of 2): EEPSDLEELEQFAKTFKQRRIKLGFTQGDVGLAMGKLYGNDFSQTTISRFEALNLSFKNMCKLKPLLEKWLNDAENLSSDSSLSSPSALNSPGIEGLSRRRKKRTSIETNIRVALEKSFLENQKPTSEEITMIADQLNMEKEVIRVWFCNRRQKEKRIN
# Chain of Oct1 DNA binding domain (Oct1-DBD);OCA-B (Q16633 whole entry, chain 2 of 2, the tested form may be a part): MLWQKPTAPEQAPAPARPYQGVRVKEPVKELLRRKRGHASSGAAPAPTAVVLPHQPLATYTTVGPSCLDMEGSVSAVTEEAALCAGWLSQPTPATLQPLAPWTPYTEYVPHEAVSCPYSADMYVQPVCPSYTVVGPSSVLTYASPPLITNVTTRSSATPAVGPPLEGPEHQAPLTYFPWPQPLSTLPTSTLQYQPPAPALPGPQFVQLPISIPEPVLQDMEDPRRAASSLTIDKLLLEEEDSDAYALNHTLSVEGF
binder,measurement,value
RHS6-Cy5 (dsDNA) DNA 1: CACCATGCAAAGGATGTGCGCGGACTCCCTTCCATTTGCTGGCCTCTTATCTGATA DNA 2: TATCAGATAAGAGGCCAGCAAATGGAAGGGAGTCCGCGCACATCCTTTGCATGGTG,binding result,binds
